The values that follow come from patent EP4585616A1, “ANTIBODY CAPABLE OF SPECIFICALLY BINDING TO ROR1, […] THEREOF, AND PREPARATION METHOD THEREFOR AND USE THEREOF” (Hefei Institutes of Physical Science, Chinese Academy of …, priority 2022, dated 2024).

What is called EC50 is the midpoint of the concentration-response curve. A high value points to weaker potency.

Assay [1] concerns the target T1, human ROR1 on the surface of tumor cells (human, UniProt Q01973 30-937).
T1 construct: whole, on cells; also called ROR1 on the cell surface; tumor cell ROR1
Nature of the assay: FACS, NCI-H226 cells. Background: A flow cytometer gives signals particle by particle.

Assay [2] has as its target T1, human ROR1 on the surface of tumor cells. Nature of the assay: FACS, MDA-MB-231 cells.
Assay [3] concerns the target T2, Extracellular domain of human ROR1 protein (ROR1-ECD) (human, UniProt Q01973 30-403).
T2 construct: Expressed in HEK293T cells; also called human ROR1-ECD; purified human ROR1 protein extracellular segment
Nature of the assay: ELISA, plate-coated ROR1-ECD. A general note: In an ELISA, binding on a coated surface is turned into a signal by an enzyme label.

Assay [4] has as its target T3, ROR1 extracellular segment sequence (including transmembrane) on CHO cells (human, UniProt Q01973 30-472).
T3 construct: Cloned into pCDNA3.1 and transfected into CHO cells; also called CHO-ROR1 (extracellular segment); CHO-ROR1
Nature of the assay: FACS, CHO-ROR1 (extracellular segment) cells.

Assay [5] has as its target T4, ROR1 extracellular segment with Ig-like domain removed on CHO cells (human, UniProt Q01973 30-472, limits assumed).
T4 construct: Transfected into CHO cells; also called CHO-ROR1 (with Ig-like domain removed)
Nature of the assay: FACS, CHO-ROR1 (with Ig-like domain removed) cells.

In assay [6] the target is T5, ROR1 extracellular segment with Kringle domain removed on CHO cells (human, UniProt Q01973 30-472, limits assumed).
T5 construct: Transfected into CHO cells; also called CHO-ROR1 (with Kringle domain removed)
T5 sequence (Q01973 other isoform, or with tags, fused parts or gaps limits assumed): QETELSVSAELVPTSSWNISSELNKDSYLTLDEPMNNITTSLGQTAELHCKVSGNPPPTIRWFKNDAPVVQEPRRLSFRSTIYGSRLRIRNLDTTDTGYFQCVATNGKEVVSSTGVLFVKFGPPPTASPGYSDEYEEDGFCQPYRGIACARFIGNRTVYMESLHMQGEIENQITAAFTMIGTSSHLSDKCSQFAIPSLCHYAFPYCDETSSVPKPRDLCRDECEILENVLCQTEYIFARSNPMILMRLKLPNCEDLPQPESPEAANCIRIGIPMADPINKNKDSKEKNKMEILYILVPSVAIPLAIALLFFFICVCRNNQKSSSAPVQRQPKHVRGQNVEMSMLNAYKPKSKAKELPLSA
Nature of the assay: FACS, CHO-ROR1 (with Kringle domain removed) cells.

Assay [7] addresses T6, ROR1 extracellular segment with Frizzled domain removed on CHO cells (human, UniProt Q01973 30-472, limits assumed).
T6 construct: Transfected into CHO cells; also called CHO-ROR1 (with Frizzled domain removed)
Nature of the assay: FACS, CHO-ROR1 (with Frizzled domain removed) cells.

The target of assay [8] is T3, ROR1 extracellular segment sequence …. The assay is described as follows: FACS, ROR1 transferred onto CHO cell surface (summing up of Example 9).
The test system of assay [9] is MDA-MB-231 tumors. The assay is described as follows: In vivo antitumor activity, subcutaneous tumor model. On the set-up: species or system immunodeficient mice (NCG or Balb/c-nude). The settings on record: 5 mg/kg once a week, tail vein, 3 weeks, result in words. The protocol:
(§1) 200 µL of cell matrix gel suspension containing 5×10^6 MDA-MB-231 and HT-29 were inoculated subcutaneously on the back of immunodeficient mice (NCG or Balb/c-nude). When the tumor volume grew to 100 to 200 mm^3, the mice were randomly divided into groups (n=10) according to the tumor volume and nude mouse weight. The mice were dosed at doses of 5 mg/kg and 2.5 mg/kg once a week through the tail vein for a total of 3 weeks, as well as a group with PBS set as a negative control. The tumor volume and nude mouse weight were measured and recorded 2 to 3 times a week to plot the tumor growth curve. The formula for calculating tumor volume (V) is: V=1/2×a×b^2, where a and b represent the length and width of the tumor, respectively.
as §1, with “5 × 10^6 MDA-MB-231, 1 × 10^7 HCC1187, 1 × 10^7 PA-1, or 5 × 10^6 NCI-N87 was” for “5×10^6 MDA-MB-231 and HT-29 were”, “300 mm3,” for “200 mm^3,”, “(n=8 to 10)” for “(n=10)”, “The formula for calculating tumor volume (V) is: V=1/2×a×b^2, where a and b represent the length and width of the tumor, respectively.” left out

Assay [10] deals with HT-29 tumors. Described as above. Details: species or system immunodeficient mice (NCG or Balb/c-nude). Conditions: 5 mg/kg and 2.5 mg/kg once a week, tail vein, 3 weeks, result in words. How it is done:
as §1

Assay [11] deals with T1, human ROR1 on the surface of tumor cells. The assay is described as follows: FACS, NCI-H226 cells. The source holds these as a separate data set.
For assay [12] the target is unchanged. The assay is described as follows: FACS, MDA-MB-231 cells. This is another data set of the same source.
Assay [13] addresses T2, Extracellular domain of human ROR1 …. Nature of the assay: ELISA, plate-coated ROR1-ECD. The source holds these as a separate data set.
Assay [14] has as its target T3, ROR1 extracellular segment sequence …. Nature of the assay: FACS, CHO-ROR1 (extracellular segment) cells. The source holds these as a separate data set.

Where a chain is given by its changes, count along the chain named. Like-named read-outs stand apart in the source and are kept apart here.

T4 sequence (Q01973 other isoform, or with tags, fused parts or gaps limits assumed): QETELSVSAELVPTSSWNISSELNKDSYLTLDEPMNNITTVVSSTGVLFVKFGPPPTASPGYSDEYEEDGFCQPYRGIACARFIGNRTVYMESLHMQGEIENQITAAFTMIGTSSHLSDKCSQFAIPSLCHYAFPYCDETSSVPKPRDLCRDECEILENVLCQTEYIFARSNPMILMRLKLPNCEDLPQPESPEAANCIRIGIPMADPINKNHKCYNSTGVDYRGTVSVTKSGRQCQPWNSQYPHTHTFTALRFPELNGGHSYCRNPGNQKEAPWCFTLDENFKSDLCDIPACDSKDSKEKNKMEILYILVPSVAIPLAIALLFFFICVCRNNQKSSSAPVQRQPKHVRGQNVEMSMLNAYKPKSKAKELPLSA
T3 sequence (Q01973 30-472 limits assumed): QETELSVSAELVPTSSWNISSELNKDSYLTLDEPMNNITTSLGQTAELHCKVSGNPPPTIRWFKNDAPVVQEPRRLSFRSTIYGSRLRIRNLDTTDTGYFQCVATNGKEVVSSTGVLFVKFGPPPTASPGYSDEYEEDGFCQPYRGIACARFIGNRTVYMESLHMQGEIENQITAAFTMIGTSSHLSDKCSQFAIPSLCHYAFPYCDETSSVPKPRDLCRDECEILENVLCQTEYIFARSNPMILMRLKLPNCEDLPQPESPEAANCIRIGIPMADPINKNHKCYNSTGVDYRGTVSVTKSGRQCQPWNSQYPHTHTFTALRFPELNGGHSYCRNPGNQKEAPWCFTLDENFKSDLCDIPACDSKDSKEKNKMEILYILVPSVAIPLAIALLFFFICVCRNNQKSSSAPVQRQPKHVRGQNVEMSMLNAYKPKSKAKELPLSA
T6 sequence (Q01973 other isoform, or with tags, fused parts or gaps limits assumed): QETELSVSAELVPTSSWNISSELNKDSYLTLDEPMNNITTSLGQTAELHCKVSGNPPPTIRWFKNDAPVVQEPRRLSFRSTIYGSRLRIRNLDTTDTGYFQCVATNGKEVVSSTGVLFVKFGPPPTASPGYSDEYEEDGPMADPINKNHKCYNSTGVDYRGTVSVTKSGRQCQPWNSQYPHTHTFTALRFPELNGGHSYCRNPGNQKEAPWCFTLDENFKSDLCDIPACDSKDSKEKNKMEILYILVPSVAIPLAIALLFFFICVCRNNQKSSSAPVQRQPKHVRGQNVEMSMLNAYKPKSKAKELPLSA
T2 sequence (Q01973 other isoform, or with tags, fused parts or gaps): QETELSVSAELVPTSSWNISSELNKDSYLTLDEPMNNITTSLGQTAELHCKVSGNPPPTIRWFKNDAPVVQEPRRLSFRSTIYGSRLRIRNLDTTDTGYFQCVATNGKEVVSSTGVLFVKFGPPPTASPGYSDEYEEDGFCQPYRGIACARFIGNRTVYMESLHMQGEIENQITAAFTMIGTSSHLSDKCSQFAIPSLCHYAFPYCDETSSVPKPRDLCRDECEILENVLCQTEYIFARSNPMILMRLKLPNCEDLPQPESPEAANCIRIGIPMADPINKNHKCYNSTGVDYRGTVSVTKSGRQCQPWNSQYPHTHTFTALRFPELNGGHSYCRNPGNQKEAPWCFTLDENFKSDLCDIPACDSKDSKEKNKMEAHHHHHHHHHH
T1 sequence (Q01973 30-937): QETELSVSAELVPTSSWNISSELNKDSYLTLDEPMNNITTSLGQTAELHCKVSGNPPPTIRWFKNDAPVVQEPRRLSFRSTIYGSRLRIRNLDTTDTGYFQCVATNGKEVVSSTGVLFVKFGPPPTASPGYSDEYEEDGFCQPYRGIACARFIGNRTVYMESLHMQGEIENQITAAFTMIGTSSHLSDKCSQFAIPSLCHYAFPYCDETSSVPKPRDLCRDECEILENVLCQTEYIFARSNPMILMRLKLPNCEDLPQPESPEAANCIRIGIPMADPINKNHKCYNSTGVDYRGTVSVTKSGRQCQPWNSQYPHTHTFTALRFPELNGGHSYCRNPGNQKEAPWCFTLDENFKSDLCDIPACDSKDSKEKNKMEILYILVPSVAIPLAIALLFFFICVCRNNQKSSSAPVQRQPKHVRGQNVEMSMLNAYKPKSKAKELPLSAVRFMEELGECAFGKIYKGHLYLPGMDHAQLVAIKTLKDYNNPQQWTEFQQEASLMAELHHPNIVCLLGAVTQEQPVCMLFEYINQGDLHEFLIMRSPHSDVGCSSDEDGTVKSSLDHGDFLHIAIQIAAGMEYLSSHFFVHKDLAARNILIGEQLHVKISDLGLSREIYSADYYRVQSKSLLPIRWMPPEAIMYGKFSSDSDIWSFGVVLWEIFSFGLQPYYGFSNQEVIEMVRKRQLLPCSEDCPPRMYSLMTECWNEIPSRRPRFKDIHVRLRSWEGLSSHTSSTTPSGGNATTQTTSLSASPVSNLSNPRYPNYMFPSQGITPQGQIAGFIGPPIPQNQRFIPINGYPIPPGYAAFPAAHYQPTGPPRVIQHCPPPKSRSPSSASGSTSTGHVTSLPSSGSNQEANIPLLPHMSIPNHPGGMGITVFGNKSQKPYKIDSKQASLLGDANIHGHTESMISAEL

B1: mAb004c (antibody, V domains shown)
VH: EVQLVESGGGLVQPKGSLKLSCAASGFTFNTYAMHWVRQAPGKGLEWVARIRSKSSNFATYYADSVRDRFTISRDDSQSMLYLQMNNLKTEDTAMYYCVRGYGPSYFSLDYWGQGTSVTVSS
VL: DVVMTQTPLSLPVSLGDQASISCRSSQSLVHSNGNTYLHWYLQKPGQSPKLLIYKVSNRFSGVPDRFSGSGSGTDFTLKINRVEAEDLGVYFCSQSTHAIYTFGGGTKLEIK
notes: Human-mouse chimeric
For the molecule B1, the EC50 in assay [1] came out at 0.46 nM; in assay [2], 0.4 nM; in assay [3], 0.012 nM; in [4] it was 0.32 nM; in assay [5] it was 0.35 nM; in assay [6] it was 0.84 nM. For the same molecule, the results for the concentration for a half-maximal effect (EC50) in assay [7] and in assay [8] were 1.37 nM and under 2 nM, respectively.

B2: mAb005c (antibody, V domains shown)
VH: EVQLVESGGGLVKPGGSLKLSCAASGFTFNSYAMSWVRQTPEKRLEWVATISDGGSYTYYPDNEKGRFTISRDNAKNNLYLQMSHLKSEDTAIYYCVRGGYYYNLYAMDYWGQGTSVTVSS
VL: DIVLTQSPASLAVSLGQRAIISCKASQSVSFPGTSLMHWYQQKPGQQPKLLIYRASNLEAGVPTRFSGSGSRTDFTLNIHPVEEDDTATYYCQQSREYPWTFGGGTQLEIK
notes: Human-mouse chimeric
As to B2, the 50% effective concentration (EC50) in assay [1] came out at 0.18 nM; in assay [2], 0.24 nM; in assay [3] it was 0.009 nM; in assay [4], 0.57 nM; in assay [6], 0.91 nM; in assay [7], 1.02 nM. This molecule also yielded a concentration for a half-maximal effect (EC50) in assay [8] of under 2 nM.

B3: UC-961 (antibody, V domains shown)
VH: QVQLQESGPGLVKPSQTLSLTCTVSGYAFTAYNIHWVRQAPGQGLEWMGSFDPYDGGSSYNQKFKDRLTISKDTSKNQVVLTMTNMDPVDTATYYCARGWYYFDYWGHGTLVTVSS
VL: DIVMTQTPLSLPVTPGEPASISCRASKSISKYLAWYQQKPGQAPRLLIYSGSTLQSGIPPRFSGSGYGTDFTLTINNIESEDAAYYFCQQHDESPYTFGEGTKVEIK
notes: Control antibody of US20150232569A1, made with human IgG1 heavy chain constant region and Kappa chain constant region
As for B3, the concentration giving a half-maximal response (EC50) in assay [1] turned out to be 0.13 nM; in assay [2], 0.21 nM; in [3], 0.013 nM; in [4], 0.74 nM; in assay [6], 0.79 nM; in assay [7], 1.11 nM.

B4: mAb001c (antibody, V domains shown)
VH: EVRLQQSGPVLVKPGASVKMSCKASGYTFTDYNLHWVKQSHRQSLEWIGYINPNHDGTSYNQKFQGKATLTVDRSSSTAYMEFRSLTSEDSAVYYCARRVRTGTGLDDWGQGTTLTVSS
VL: DVLMTQSPLSLPVSLGDQASISCRSSHNIVHTNGNTYLEWYLQKPGQSPKLLIYKVSNRFSGVPDRFSGSGSGTYFTLTISRVEAEDLGVYYCFQGSRFPYTFGGGTKLEIK
notes: Human-mouse chimeric; also called human-mouse chimeric antibody mAb001c
As for B4, the EC50 in [1] came out at 0.11 nM; in assay [2], 0.15 nM; in assay [3], 0.012 nM; in [4] it was 0.32 nM; in [5], 0.36 nM; in assay [6] it was 0.38 nM. The results for the EC50 in [7] and in assay [8] were 0.85 nM and under 2 nM, respectively.

B5: mAb001c-vcMMAE: antibody conjugate of chimeric antibody mAb001c coupled with vcMMAE, average DAR about 3.81 (conjugate)
VH: B4 VH
VL: B4 VL
B5: the “inhibition of the growth of MDA-MB-231 tumors” value in assay [9] is “completely inhibit”. Moreover, in [10], the “inhibition of the growth of HT-29 tumors” value was “significantly and dose-dependently inhibited”.

B6: mAb008c (antibody, V domains shown)
VH: EVQLQQSGPELVKPGASVKMSCKASEYTFTDYNMHWVKQSHGKSLEWIGYINPNNGGTTYNQKFKGKATLTVNKSSSTAYMELRSLTSDDSAVYYCARRGYGSGYAMDYWGQGASVTVSS
VL: B4 VL with M4L, S7T, Q18R, R24T, H27Q, N28S, K44N, Y75D, T79K, R98L
notes: Human-mouse chimeric
Turning to B6, the EC50 in [11] came to 0.36 nM; in assay [12] it was 0.78 nM; in assay [13], 0.02 nM; in [14], 0.7 nM; in assay [5], 0.37 nM; in assay [6], 1.5 nM. Besides, the results for the EC50 in assay [7] and in [8] were 1.67 nM and under 2 nM, respectively.
